Assay results reported in the supplement of paper PMC10724198.
± gives the standard deviation of the averaged measurements.

Tested on: Saccharomyces cerevisiae
Test: protein stability index of tFT-peptide fusion (C-terminal peptide) (PSI (0-1 scale)); higher = more stable (slower turnover)
Settings: genetic background: wild type; temperature: 30 C
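Further: PSI is a weighted mean of sequencing reads over stability bins, variants kept only with over 10 reads, mCherry proximal and sfGFP distal, peptide attached via GGGS linker.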

SSFCWAGWGGVC
protein stability index: 0.778 ± 0.059

HFLSCVGSLWFH
protein stability index: 0.741 ± 0.0087

VYHMFHLGPSFD
protein stability index: 0.7051 ± 0.0015

LPLSFPTLPPPP
protein stability index: 0.66 ± 0.055

APGLPSFRSLFA
protein stability index: 0.676 ± 0.016

HQLHLMRDSIRN
protein stability index: 0.716 ± 0.021

RNKTNYIQKLTK
protein stability index: 0.665 ± 0.027

AKLVESISEVAT
protein stability index: 0.6766 ± 0.0052

PRAGPPPPPPSP
protein stability index: 0.734 ± 0.028

TRLSTPGYLILS
protein stability index: 0.724 ± 0.016

TSPLPRPPPPSY
protein stability index: 0.61 ± 0.043

KKVLKFTKKKKP
protein stability index: 0.599 ± 0.048

PPLPNLVYHLST
protein stability index: 0.6195 ± 0.0054

RLTPFPPRPLPL
protein stability index: 0.767 ± 0.2

PSYLALPLSTSP
protein stability index: 0.684 ± 0.024

RNRRKEMKKGRE
protein stability index: 0.631 ± 0.034

ILPPPPPPPPPF
protein stability index: 0.714 ± 0.039

RKSDGMKSCLMG
protein stability index: 0.684 ± 0.016

PPLPPTLSSIVI
protein stability index: 0.599 ± 0.021

LIFACIYFSGVV
protein stability index: 0.644 ± 0.047

VGGVGGLWGGAV
protein stability index: 0.69 ± 0.064

LVVWSSIVSGGG
protein stability index: 0.675 ± 0.05

VGVDCGVLWCLF
protein stability index: 0.637 ± 0.015

GEGRWWGSFWVG
protein stability index: 0.672 ± 0.019

PHGPPAHLRSRP
protein stability index: 0.737 ± 0.015

CSRGVVLFLGFL
protein stability index: 0.586 ± 0.016

PPLTHASPLHLI
protein stability index: 0.585 ± 0.021

FGVVLAGAGWGG
protein stability index: 0.675 ± 0.095

KARIADRKMWGN
protein stability index: 0.684 ± 0.017

SAPLLLPPLSSP
protein stability index: 0.713 ± 0.023

SNPSTNPCWKKK
protein stability index: 0.643 ± 0.041

YDRVVHASSTMW
protein stability index: 0.707 ± 0.013

FSGISVMCLFSG
protein stability index: 0.687 ± 0.12

SLTYTSVAKAEV
protein stability index: 0.6149 ± 0.0034

MKTSIQHNRNPG
protein stability index: 0.659 ± 0.0096

GTKDRSNMIRKS
protein stability index: 0.6702 ± 0.0044

FLPRLSASSSLC
protein stability index: 0.728 ± 0.015

SIFSFCSNTWFL
protein stability index: 0.747 ± 0.029

MQGCKAYSVGRQ
protein stability index: 0.701 ± 0.061

PPSVLLPLACPP
protein stability index: 0.677 ± 0.008

PISPPLPRPSPR
protein stability index: 0.696 ± 0.012

PPLPAPPAPAVQ
protein stability index: 0.6991 ± 0.0027

CGVGWGMGEGWR
protein stability index: 0.6956 ± 0.00081

RHLPPAPAPRFI
protein stability index: 0.717 ± 0.2

LPPAVIVCVLPS
protein stability index: 0.586 ± 0.0097

GVLPVDKFLKNW
protein stability index: 0.735 ± 0.098

FHYSRSCVLEQL
protein stability index: 0.698 ± 0.074

EKKRKKIYGNLK
protein stability index: 0.683 ± 0.13

PPPPLPPAPPLP
protein stability index: 0.6607 ± 8.2e-05

EGGVERIHKPSS
protein stability index: 0.654 ± 0.061

LLSIGTSTLFLL
protein stability index: 0.636 ± 0.017

IPFFHVVPRPPP
protein stability index: 0.628 ± 0.024

PPSLRFLLPPSA
protein stability index: 0.685 ± 0.058

PPPPPPLSRTST
protein stability index: 0.723 ± 0.082

LSPLIHSPRPFA
protein stability index: 0.752 ± 0.061

APKVYVAAYTPL
protein stability index: 0.676 ± 0.025

ALCSGCFAFLGA
protein stability index: 0.676 ± 0.11

WFRCCGVLGCLG
protein stability index: 0.657 ± 0.019

SSSFLVLSSHFI
protein stability index: 0.701 ± 0.028

GIYLEESPMRKF
protein stability index: 0.708 ± 0.014

KKKTSKVIIREG
protein stability index: 0.689 ± 0.0085

PPCGPPGPPIPP
protein stability index: 0.592 ± 0.026

CRFPFRILHPPF
protein stability index: 0.68957 ± 0.00018

MWYCGVSGPGNG
protein stability index: 0.6859 ± 0.0013

GSAVMLGVSVRV
protein stability index: 0.581 ± 0.043

GLGREVAIMNTW
protein stability index: 0.669 ± 0.058

GSSCRFGDNTVG
protein stability index: 0.738 ± 0.046

YSKVGCRHSYHT
protein stability index: 0.669 ± 0.017

LLHPSPTPPCPP
protein stability index: 0.696 ± 0.06

PPPPLPPRPSPP
protein stability index: 0.71 ± 0.074

ITIVIKQNVDKE
protein stability index: 0.564 ± 0.016

VEFGGICSYVGC
protein stability index: 0.724 ± 0.036

WWHVLLGGCGCW
protein stability index: 0.753 ± 0.013

PLALSPNPLSRT
protein stability index: 0.679 ± 0.045

DIHVNLHKSRKM
protein stability index: 0.626 ± 0.027

PSFVIQRCPMIL
protein stability index: 0.606 ± 0.076

IKNKDLISVIII
protein stability index: 0.646 ± 0.042

VGLLGCGMNGGR
protein stability index: 0.701 ± 0.068

CRRLSICPILFL
protein stability index: 0.607 ± 0.0062

ELTKNRQTVIIS
protein stability index: 0.635 ± 0.035

GVRNISELSRLF
protein stability index: 0.644 ± 0.019

ACWVAKTGGSPV
protein stability index: 0.654 ± 0.012

CGSGWDRSVGIG
protein stability index: 0.531 ± 0.027

WSLLLLPEFSLR
protein stability index: 0.705 ± 0.012

GVYFMGVLGREG
protein stability index: 0.655 ± 0.067

VGCGGRGGRRGW
protein stability index: 0.599 ± 0.019

RQKIRRKSSTKN
protein stability index: 0.704 ± 0.0074

GGVPRNRAQIGV
protein stability index: 0.758 ± 0.082

VKPIFTEYGRYK
protein stability index: 0.626 ± 0.002

YGSQAYAIDSKP
protein stability index: 0.6369 ± 0.0009

TRTGSTPRGSTR
protein stability index: 0.684 ± 0.069

GPGVGYGRWRGG
protein stability index: 0.667 ± 0.094

IVWCAINYLFRS
protein stability index: 0.63 ± 0.054

PPLCPPLPFLHP
protein stability index: 0.885 ± 0.11

PPLASSPPVLAR
protein stability index: 0.514 ± 0.018

CRPAASCLPPER
protein stability index: 0.6684 ± 0.0066

VRQGERGGGLGD
protein stability index: 0.747 ± 0.038

SPPFPRPCPFTP
protein stability index: 0.644 ± 0.086

STKVEIKKRDSR
protein stability index: 0.715 ± 0.18

DCKVLIGQYQRE
protein stability index: 0.7 ± 0.0098

SFGPQFLAPVFS
protein stability index: 0.706 ± 0.031
